Consider four molecules from patent US20260139001A1 (Harvard, published 2026).

Experiment [1] has as its target T1, SARS-CoV-2 Spike RBD, Wuhan (SARS-CoV-2, UniProt P0DTC2 319-541).
The target in experiment [2] is T1, SARS-CoV-2 Spike RBD, Wuhan. The source holds these as a separate data set.

Positions count from the first letter of the chain named.

B1: LCB3-NS (LCB3 H19aNBDC) (designed binder)
chain: MNDDELHMLMTDLVYEALCFAKDEEIKKRVFQLFELADKAYKNNDRQKLEKVVEELKELLERLLS
As a reminder, the EC50 is the concentration needed to bring the measured effect to its halfway point. A low value points to a more potent agent. For the molecule B1, in experiment [1], the EC50 is 6.4 µM. In other words, the single-digit micromolar range.

B2: VHH72 wt (VHH)
VHH: QVQLQESGGGLVQAGGSLRLSCAASGRTFSEYAMGWFRQAPGKEREFVATISWSGGSTYYTDSVKGRFTISRDNAKNTVYLQMNSLKPDDTAVYYCAAAGLGTVVSEWDYDYDYWGQGTQVTVSS
What is called Kd is the equilibrium constant for the complex coming apart. Low readings indicate a tighter complex, high ones a looser complex. Regarding B2, binding in experiment [2] was put at a Kd of 45 nM.

B3: VHH72 G56MDCcC (VHH)
VHH: B2 VHH with G56C
In experiment [1], B3 returned an EC50 of 1.1 µM.

B4: VHH72 NoK wt (VHH)
VHH: B2 VHH with K43R, K65R, K76R, K87R
In experiment [2], B4 showed a Kd of 75 nM.
